From the supplement of paper PMC9170038

Tested on: MS2 coat protein
Experiment: apparent KD of MS2 coat protein; designed switch direction (-1 OFF switch, 1 ON switch): 1; higher = weaker reporter binding
Outline: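 Three titration conditions were used: no input, 200 uM small-molecule ligand, and an oligonucleotide input. In each, SNAP-549-labelled MS2 coat protein was raised from 0.7 or 1.5 nM, doubling, to 3 µM over designed RNA switches transcribed on Illumina chips by stalled E. coli RNA polymerase. Curve fits of normalised cluster fluorescence gave values whose per-design median over clusters is the apparent KD.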

[1] = input ligand: microRNA oligo, concentration not stated
[2] = Eterna round: R95, input ligand: FMN 200 uM
[3] = Eterna round: R95, input ligand: microRNA oligo, concentration not stated
[4] = Eterna round: R95, input ligand: none

| Sequence | apparent KD of MS2 coat protein (input ligand: FMN 200 uM) | apparent KD of MS2 coat protein [1] | apparent KD of MS2 coat protein (input ligand: none) | apparent KD of MS2 coat protein [2] | apparent KD of MS2 coat protein [3] | apparent KD of MS2 coat protein [4] |
| --- | --- | --- | --- | --- | --- | --- |
| UGGUACAUGGGAGGAUAUCAUGCAAACAUGAGGAUCACCCAUGUAGCCAUGGAGACAUGGGUAUAUGAGAAGGCCCAUGUACCU [JL SSNG1 3.52] (Eterna round: R96, puzzle: Same State NG 2) | 317 nM | 51.9 nM | 88.3 nM | – | – | – |
| UGGUACAUGGGAGGAUAUCAUGUAGACAUGAGGAUCACCCAUGUAGCCAUGGAGACAUGGGAGAAUGAGAAGGCCCAUGUACCU [JL SSNG1 3.54] (Eterna round: R96, puzzle: Same State NG 2) | 298 nM | 14.1 nM | 104 nM | – | – | – |
| UGGUACAUGGGAGGAUAUCUCAUGGAGACAUGAGGAUCACCCAUGUAGAUGGCCGGUAACCGGAGAGAGAAGGCCCAUGUACCU [JL SSNG1 3.67] (Eterna round: R96, puzzle: Same State NG 2) | 79.6 nM | 152 nM | 198 nM | – | – | – |
| UGGUACAUGGGAGGAUAUCUCGUGGAGACAUGAGGAUCACCCAUGUAGAUGGCCGGUAACCGGAGAGAGAAGGCCCAUGUACCU [JL SSNG1 3.68] (Eterna round: R96, puzzle: Same State NG 2) | 66.9 nM | 65.4 nM | 159 nM | – | – | – |
| UGGUACAUGGGAGGAUAUGGAGUGAUGACAUGAGGAUCACCCAUGUUAAAUAUGCCGAGAGGCAACUAGAAGGCCCAUGUACCU [JL SSNG1 3.98] (Eterna round: R96, puzzle: Same State NG 2) | 22.3 nM | 298 nM | 418 nM | – | – | – |
| UGGUACAUGGGAGGAUAUGGAGUGAUGACAUGAGGAUCACCCAUGUUAUAAAUGCCGAGAGGCAACUAGAAGGCCCAUGUACCU [JL SSNG1 3.95] (Eterna round: R96, puzzle: Same State NG 2) | 23.2 nM | 149 nM | 149 nM | – | – | – |
| UGUACCUUCACAGGAUAUCAUGCGAAAAUUGCGUGAGAAGGGUGAAUACUGUCUUUCUAAGAGCACAUGAGGAUCACCCAUGUA [SameState NG1 #59] (Eterna round: R96, puzzle: Same State NG 1) | 195 nM | 206 nM | 278 nM | – | – | – |
| UGUCCAGCCUGAGCUGGACAAAAGCAUGUACAUGAGGAUCACCCAUGUUCAUGUACAAGCUUUUUGCUCGUCUUAAC [salish99_208a_r3_033] (puzzle: Sensor for hsa-mir-208a) | – | – | – | 354 nM | 14.1 nM | 465 nM |
| UGUUAACAUGAGGAUCACCCAUGUCAAAUGAAUCGAGGAUAUGGGAAGGAAGAAGAGAAACUAGAAGGCGAAGUUG [Altered State 1-4 - Jieux - Same State 1] (puzzle: Same State 1) | – | – | – | 835 nM | 56.8 nM | 216 nM |
| UGUUGUAAUACAGGAUAUAUAUUAUUUUUAUUUAUAGAAGGGUAAUCACAUGAGGAUCACCCAUGUAUAUACGAGGAAGAAGAG [JMF's solution 3] (Eterna round: R96, puzzle: Same State NG 1) | – | 139 nM | – | – | – | – |
| UGUUGUAUUACAGGAUAUCUAGUAUUUUUAAUUAGAGAAGGGUAUUCACAUGAGGAUCACCCAUGUAUAUACGAGGAAGUUGUG [JMF's solution 48] (Eterna round: R96, puzzle: Same State NG 1) | – | 34 nM | – | – | – | – |
| UGUUGUAUUACAGGAUAUCUAGUAUUUUUGUUUAGAGAAGGGUAUUCACAUGAGGAUCACCCAUGUAUAUACGAGGAAGUUGUG [JMF's solution 47] (Eterna round: R96, puzzle: Same State NG 1) | – | 42.3 nM | – | – | – | – |
| UGUUGUAUUACAGGAUAUCUAUGAUUUUUAUCUAGAGAAGGGUAUUCACAUGAGGAUCACCCAUGUAUAUACGAGGAAGUUGUG [JMF's solution 69] (Eterna round: R96, puzzle: Same State NG 1) | – | 25.1 nM | – | – | – | – |
| UGUUGUAUUACAGGAUAUCUAUUAGUGUUAUUUAGAGAAGGGUAUUCACAUGAGGAUCACCCAUGUAUAUACGAGGAAGUUGUG [JMF's solution 90] (Eterna round: R96, puzzle: Same State NG 1) | 65.1 nM | 37.4 nM | 57.4 nM | – | – | – |
| UGUUGUAUUACAGGAUAUCUAUUAUUUUUUUUUAGAGAAGGGUAUUCACAUGAGGAUCACCCAUGUAUAUACGAGGAAGUUGUG [JMF's solution 23] (Eterna round: R96, puzzle: Same State NG 1) | – | 45.5 nM | – | – | – | – |
| UGUUGUAUUACAGGAUAUCUGUUAUUUUUAUUUAGAGAAGGGUAUUCACAUGAGGAUCACCCAUGUAUAUACGAGGAAGUUGUG [JMF's solution 7] (Eterna round: R96, puzzle: Same State NG 1) | – | 40.8 nM | – | – | – | – |
| UGUUGUUAAUUAGGAUAUGGUCACAUGAGGAUCACCCAUGUAAUGUCGAUGCUAUGUGGAUUUGAUCAGAAGGAAUGGCUAACA [SameState NG2 #97] (Eterna round: R96, puzzle: Same State NG 2) | 105 nM | 242 nM | 341 nM | – | – | – |
| UUAAGCCGCGGGCAGGAUAUGUAUUAAAAUACAUGAGGAUCACCCAUGUGCAGGUGUAACACCUGACAGAAGGGCCAAUCGCGGC [Soteed - 5] (puzzle: Same State 2) | – | – | – | 21.2 nM | 116 nM | 229 nM |
